{
  "source": "the DeepSol protein solubility set",
  "data": [
    {"assay": "soluble on expression in E. coli; label from the status in PepcDB or PDB records", "values": [
      {"sequence": "MGKNEILWGIAPIGWRNDDMPEIGAGNTLQHLLSDIVVARFQGTEVGGFFPEPAILNKELKLRNLRIAGKWFSSFILRDGLGEAAKTFTLHCEYLQQVNADVAVVSEQTYSVQSLEKNVFTEKPHFTDDEWERLCEGLNHLGEIAAQHGLKLVYHHHLGTGVQTAEEVDRLMAGTDPAHVHLLYDTGHAYISDGDYMGMLEKHIGRIKHVHFKDARLNVMEQCRLEGQSFRQSFLKGMFTVPGDGCIDFREVYQLLLKHSYSGWIVIEAEQDPDVANPLEYALIARNYIDQQLLDLAMGHHHHHHSH", "soluble on expression in E. coli": "soluble"},
      {"sequence": "MGSDKIHHHHHHMHLTQSTISQQLARLEESVGHSLIDRTARPLQLTASGEYLIGYAQRILTLQQEAEAVLKDPAGSIPIRIGLPEDMMSTAMAEVFGLFAQEHRTIRLDVTSGLSRNLTERYRNGELDIVIVKESAASADCYASFPEEMAWFESENAITPLSEPIRLVTFPQGGLYRDEMFETLERERRRWYIAFTGSSLESVLVSVETGLGISLLPVSTTKGRRVRRYKSLGEASPMVVSIYTWEKAGLISQLVDHMTTVLHDRFQSGS", "soluble on expression in E. coli": "not soluble"},
      {"sequence": "MSLKYDLKYLSVPLPEEIQRVKEFGDFASADIAIDFWLTKELPQALKERLIIEKDVIKMMRMNEYPHSFAKADQMMRDTFQDYQTEELIRLKETGLVDWVYIDGEPYFQLRFLANLIKTNAAYVARLREAESNQLEILRKKELKENIEQMQKNGGRKVRTTIKATIQVKKEFERPGERVRVHLPLPKACQQQSEIEILATSPEATYIAAEDAPQRTLCFETILKENQTFTVEYCYVNRMVYQQLEENNVDKMQPSFDLEEQLPHIRFTPYLRNLADEIVGDESNPLKKARLIYDFVTTKIHYSFMREYFTISNISEYAATNLKGDCGVQAILFITLCRIAGIPAKWQSGLYVSTHYTGCHDWAQFYIKPYGWLFADLSFGGGAYRDGDRQRWNHYFGNLDVFRMVANSEIQADFQPAKMQLRADPIDNQRGEFEYENEGLPYACLIVSQERLSMEELPFDEGGSHHHHHH", "soluble on expression in E. coli": "soluble"},
      {"sequence": "MDLPYYHGCLTKRECEALLLKGGVDGNFLIRDSESVPGALCLCVSFKKLVYSYRIFREKHGYYRIETDAHTPRTIFPNLQELVSKYGKPGQGLVVHLSNPIMR", "soluble on expression in E. coli": "soluble"},
      {"sequence": "MKAPAFTEAKLQDPIPAKIYDKNGELVKTLDNGQRHEHVNLKDVPKSMKDAVLATEDNRFYEHGALDYKRLFGAIGKNLTGGFGSEGASTLTQQVVKDAFLSQHKSIGRKAQEAYLSYRLEQEYSKDDIFQVYLNKIYYSDGVTGIKAAAKYYFNKDLKDLNLAEEAYLAGLPQVPNNYNIYDHPKAAEDRKNTVLYLMHYHKRITDKQWEDAKKIDLKANLVNRTPEERQNIDTNQDSEYNSYVNFVKSELMNNKAFKDENLGNVLQSGIKIYTNMDKDVQKTLQNDVDNGSFYKNKDQQVGATILDSKTGGLVAISGGRDFKDVVNRNQATDPHPTGSSLKPFLAYGPAIENMKWATNHAIQDESSYQVDGSTFRNYDTKSHGTVSIYDALRQSFNIPALKAWQSVKQNAGNDAPKKFAAKLGLNYEGDIGPSEVLGGSASEFSPTQLASAFAAIANGGTYNNAHSIQKVVTRDGETIEYDHTSHKAMSDYTAYMLAEMLKGTFKPYGSAYGHGVSGVNMGAKTGTGTYGAETYSQYNLPDNAAKDVWINGFTPQYTMSVWMGFSKVKQYGENSFVGHSQQEYPQFLYENVMSKISSRDGEDFKRPSSVSGSIPSINVSGSQDNNTTNRSTHGGSDTSANSSGTAQSNNNTRSQQSRNSGGLTGIFN", "soluble on expression in E. coli": "soluble"},
      {"sequence": "MGSDKIHHHHHHMSILGLFGCDNGRNIAIICKNNPEICADLHKDSWCLAEKTQLIRDRYTLKDTTHPTGKQLYLQLTYLEDYSRCIELAAGVQHIIHTSRTADRARAFRLSTENLTQLQEQTRERQDPFMSYYQWTRFGDTQALNRLLEHENAGEVTDPFLLAQIATYYSNRDAIKSQQLYLKVLSEIQYDDFDVNWLLGLASTFRHTQQFDKTYMLTKANLLLTQQKYSEDKMLALLSNNKTLAAKLDKYAQTLIDALKNGNYSTSSVRKWLEPAPQILPAETITTEPVPEK", "soluble on expression in E. coli": "not soluble"},
      {"sequence": "MGSDKIHHHHHHMNAIAKHKENLLLDGFTIIDDIYSDEEVQQILAVIENADMSNETFRKSSDLFAIRQFLKEIPEAKELIYNKNLKKVGAELFGTDFFTVKSIYFDKPETSNWYVAYHQDLTISVDTKIDLAGFGPWTVKQNQFAVQPPLEILKNIFTIRIHLDDTNEENGALKVVPGSHAKNIYRPETIDWSVEKEISCNVKKGGIMIMKPLLLHSSGRTTNNKKRRVIHIEFSNQELPVELNWAERLN", "soluble on expression in E. coli": "not soluble"}
    ]}
  ]
}
